Experimental findings from article PMC10786891, “Massively parallel profiling of RNA-targeting CRISPR-Cas13d” are described below.

First the molecules themselves.
B1: target 1 insC 3' of 15,insU 3' of 9 (mixed)
RNA 1: CACCCGUGCAAAAAUGCAGGGGUCUAAAACUGAGCGGAUAACCUCUCUAUGG
RNA 2: GGGAAUGGAUCCACAUCUACGAAUUCGUACCAUAGAGCAGGUUAUUCCGCUCACCGAGAUCGGAAGAGCACACGU
B2: target 1 insC 3' of 22,insC 3' of 15 (mixed)
RNA 1: CACCCGUGCAAAAAUGCAGGGGUCUAAAACUGAGCGGAUAACCUCUCUAUGG
RNA 2: GGGAAUGGAUCCACAUCUACGAAUUCGUACCCAUAGAGCAGGUUAUCCGCUCACCGAGAUCGGAAGAGCACACGU
B3: target 1 insU 3' of 20,insU 3' of 9 (mixed)
RNA 1: CACCCGUGCAAAAAUGCAGGGGUCUAAAACUGAGCGGAUAACCUCUCUAUGG
RNA 2: GGGAAUGGAUCCACAUCUACGAAUUCGUACCAUUAGAGAGGUUAUUCCGCUCACCGAGAUCGGAAGAGCACACGU
B4: target 1 U11C,G13U (mixed)
RNA 1: CACCCGUGCAAAAAUGCAGGGGUCUAAAACUGAGCGGAUAACCUCUCUAUGG
RNA 2: GGGAAUGGAUCCACAUCUACGAAUUCGUACCAUAGAGAUGCUAUCCGCUCACCGAGAUCGGAAGAGCACACGU
B5: target 1 del9,del22 (mixed)
RNA 1: CACCCGUGCAAAAAUGCAGGGGUCUAAAACUGAGCGGAUAACCUCUCUAUGG
RNA 2: GGGAAUGGAUCCACAUCUACGAAUUCGUACAUAGAGAGGUUUCCGCUCACCGAGAUCGGAAGAGCACACGU
B6: target 1 insU 3' of 6,insU 3' of 6 (mixed)
RNA 1: CACCCGUGCAAAAAUGCAGGGGUCUAAAACUGAGCGGAUAACCUCUCUAUGG
RNA 2: GGGAAUGGAUCCACAUCUACGAAUUCGUACCAUAGAGAGGUUAUCCUUGCUCACCGAGAUCGGAAGAGCACACGU
B7: target 1 G5U,C6U (mixed)
RNA 1: CACCCGUGCAAAAAUGCAGGGGUCUAAAACUGAGCGGAUAACCUCUCUAUGG
RNA 2: GGGAAUGGAUCCACAUCUACGAAUUCGUACCAUAGAGAGGUUAUCUUCUCACCGAGAUCGGAAGAGCACACGU
B8: target 1 complement block 10-12 (mixed)
RNA 1: CACCCGUGCAAAAAUGCAGGGGUCUAAAACUGAGCGGAUAACCUCUCUAUGG
RNA 2: GGGAAUGGAUCCACAUCUACGAAUUCGUACCAUAGAGAGCAAAUCCGCUCACCGAGAUCGGAAGAGCACACGU
B9: target 1 U8C,A14G (mixed)
RNA 1: CACCCGUGCAAAAAUGCAGGGGUCUAAAACUGAGCGGAUAACCUCUCUAUGG
RNA 2: GGGAAUGGAUCCACAUCUACGAAUUCGUACCAUAGAGGGGUUACCCGCUCACCGAGAUCGGAAGAGCACACGU
B10: target 1 insU 3' of 12,insC 3' of 10 (mixed)
RNA 1: CACCCGUGCAAAAAUGCAGGGGUCUAAAACUGAGCGGAUAACCUCUCUAUGG
RNA 2: GGGAAUGGAUCCACAUCUACGAAUUCGUACCAUAGAGAGGUUUCAUCCGCUCACCGAGAUCGGAAGAGCACACGU
B11: target 1 insC 3' of 17,insG 3' of 2 (mixed)
RNA 1: CACCCGUGCAAAAAUGCAGGGGUCUAAAACUGAGCGGAUAACCUCUCUAUGG
RNA 2: GGGAAUGGAUCCACAUCUACGAAUUCGUACCAUAGCAGAGGUUAUCCGCUCGACCGAGAUCGGAAGAGCACACGU
B12: target 1 insG 3' of 4,insG 3' of 3 (mixed)
RNA 1: CACCCGUGCAAAAAUGCAGGGGUCUAAAACUGAGCGGAUAACCUCUCUAUGG
RNA 2: GGGAAUGGAUCCACAUCUACGAAUUCGUACCAUAGAGAGGUUAUCCGCGUGCACCGAGAUCGGAAGAGCACACGU
B13: target 1 insA 3' of 21,insU 3' of 9 (mixed)
RNA 1: CACCCGUGCAAAAAUGCAGGGGUCUAAAACUGAGCGGAUAACCUCUCUAUGG
RNA 2: GGGAAUGGAUCCACAUCUACGAAUUCGUACCAAUAGAGAGGUUAUUCCGCUCACCGAGAUCGGAAGAGCACACGU
B14: target 1 insA 3' of 10,insC 3' of 5 (mixed)
RNA 1: CACCCGUGCAAAAAUGCAGGGGUCUAAAACUGAGCGGAUAACCUCUCUAUGG
RNA 2: GGGAAUGGAUCCACAUCUACGAAUUCGUACCAUAGAGAGGUUAAUCCGCCUCACCGAGAUCGGAAGAGCACACGU
B15: target 1 C7G,A20C (mixed)
RNA 1: CACCCGUGCAAAAAUGCAGGGGUCUAAAACUGAGCGGAUAACCUCUCUAUGG
RNA 2: GGGAAUGGAUCCACAUCUACGAAUUCGUACCCUAGAGAGGUUAUGCGCUCACCGAGAUCGGAAGAGCACACGU
B16: target 1 insU 3' of 17,insA 3' of 10 (mixed)
RNA 1: CACCCGUGCAAAAAUGCAGGGGUCUAAAACUGAGCGGAUAACCUCUCUAUGG
RNA 2: GGGAAUGGAUCCACAUCUACGAAUUCGUACCAUAGUAGAGGUUAAUCCGCUCACCGAGAUCGGAAGAGCACACGU
B17: target 1 insC 3' of 11 (mixed)
RNA 1: CACCCGUGCAAAAAUGCAGGGGUCUAAAACUGAGCGGAUAACCUCUCUAUGG
RNA 2: GGGAAUGGAUCCACAUCUACGAAUUCGUACCAUAGAGAGGUCUAUCCGCUCACCGAGAUCGGAAGAGCACACGU
B18: target 1 C4A,C7U (mixed)
RNA 1: CACCCGUGCAAAAAUGCAGGGGUCUAAAACUGAGCGGAUAACCUCUCUAUGG
RNA 2: GGGAAUGGAUCCACAUCUACGAAUUCGUACCAUAGAGAGGUUAUUCGAUCACCGAGAUCGGAAGAGCACACGU
B19: target 1 G15A,U19C (mixed)
RNA 1: CACCCGUGCAAAAAUGCAGGGGUCUAAAACUGAGCGGAUAACCUCUCUAUGG
RNA 2: GGGAAUGGAUCCACAUCUACGAAUUCGUACCACAGAAAGGUUAUCCGCUCACCGAGAUCGGAAGAGCACACGU
B20: target 1 insU 3' of 14,insU 3' of 6 (mixed)
RNA 1: CACCCGUGCAAAAAUGCAGGGGUCUAAAACUGAGCGGAUAACCUCUCUAUGG
RNA 2: GGGAAUGGAUCCACAUCUACGAAUUCGUACCAUAGAGAUGGUUAUCCUGCUCACCGAGAUCGGAAGAGCACACGU
B21: target 1 insC 3' of 12,insG 3' of 10 (mixed)
RNA 1: CACCCGUGCAAAAAUGCAGGGGUCUAAAACUGAGCGGAUAACCUCUCUAUGG
RNA 2: GGGAAUGGAUCCACAUCUACGAAUUCGUACCAUAGAGAGGCUUGAUCCGCUCACCGAGAUCGGAAGAGCACACGU
B22: target 1 insA 3' of 17,insA 3' of 11 (mixed)
RNA 1: CACCCGUGCAAAAAUGCAGGGGUCUAAAACUGAGCGGAUAACCUCUCUAUGG
RNA 2: GGGAAUGGAUCCACAUCUACGAAUUCGUACCAUAGAAGAGGUAUAUCCGCUCACCGAGAUCGGAAGAGCACACGU
B23: target 1 insG 3' of 18,insG 3' of 16 (mixed)
RNA 1: CACCCGUGCAAAAAUGCAGGGGUCUAAAACUGAGCGGAUAACCUCUCUAUGG
RNA 2: GGGAAUGGAUCCACAUCUACGAAUUCGUACCAUAGGAGGAGGUUAUCCGCUCACCGAGAUCGGAAGAGCACACGU
B24: target 1 C4A,U8C (mixed)
RNA 1: CACCCGUGCAAAAAUGCAGGGGUCUAAAACUGAGCGGAUAACCUCUCUAUGG
RNA 2: GGGAAUGGAUCCACAUCUACGAAUUCGUACCAUAGAGAGGUUACCCGAUCACCGAGAUCGGAAGAGCACACGU
B25: target 1 insU 3' of 20,insG 3' of 16 (mixed)
RNA 1: CACCCGUGCAAAAAUGCAGGGGUCUAAAACUGAGCGGAUAACCUCUCUAUGG
RNA 2: GGGAAUGGAUCCACAUCUACGAAUUCGUACCAUUAGAGGAGGUUAUCCGCUCACCGAGAUCGGAAGAGCACACGU
B26: target 1 G13U,C22A (mixed)
RNA 1: CACCCGUGCAAAAAUGCAGGGGUCUAAAACUGAGCGGAUAACCUCUCUAUGG
RNA 2: GGGAAUGGAUCCACAUCUACGAAUUCGUAACAUAGAGAUGUUAUCCGCUCACCGAGAUCGGAAGAGCACACGU
B27: target 1 U8G,C22U (mixed)
RNA 1: CACCCGUGCAAAAAUGCAGGGGUCUAAAACUGAGCGGAUAACCUCUCUAUGG
RNA 2: GGGAAUGGAUCCACAUCUACGAAUUCGUAUCAUAGAGAGGUUAGCCGCUCACCGAGAUCGGAAGAGCACACGU

The data set has as its target T1, EsCas13d, nuclease-dead (Eubacterium siraeum, UniProt B0MS50, R295A;H300A;R849A;H854A).
T1 sequence: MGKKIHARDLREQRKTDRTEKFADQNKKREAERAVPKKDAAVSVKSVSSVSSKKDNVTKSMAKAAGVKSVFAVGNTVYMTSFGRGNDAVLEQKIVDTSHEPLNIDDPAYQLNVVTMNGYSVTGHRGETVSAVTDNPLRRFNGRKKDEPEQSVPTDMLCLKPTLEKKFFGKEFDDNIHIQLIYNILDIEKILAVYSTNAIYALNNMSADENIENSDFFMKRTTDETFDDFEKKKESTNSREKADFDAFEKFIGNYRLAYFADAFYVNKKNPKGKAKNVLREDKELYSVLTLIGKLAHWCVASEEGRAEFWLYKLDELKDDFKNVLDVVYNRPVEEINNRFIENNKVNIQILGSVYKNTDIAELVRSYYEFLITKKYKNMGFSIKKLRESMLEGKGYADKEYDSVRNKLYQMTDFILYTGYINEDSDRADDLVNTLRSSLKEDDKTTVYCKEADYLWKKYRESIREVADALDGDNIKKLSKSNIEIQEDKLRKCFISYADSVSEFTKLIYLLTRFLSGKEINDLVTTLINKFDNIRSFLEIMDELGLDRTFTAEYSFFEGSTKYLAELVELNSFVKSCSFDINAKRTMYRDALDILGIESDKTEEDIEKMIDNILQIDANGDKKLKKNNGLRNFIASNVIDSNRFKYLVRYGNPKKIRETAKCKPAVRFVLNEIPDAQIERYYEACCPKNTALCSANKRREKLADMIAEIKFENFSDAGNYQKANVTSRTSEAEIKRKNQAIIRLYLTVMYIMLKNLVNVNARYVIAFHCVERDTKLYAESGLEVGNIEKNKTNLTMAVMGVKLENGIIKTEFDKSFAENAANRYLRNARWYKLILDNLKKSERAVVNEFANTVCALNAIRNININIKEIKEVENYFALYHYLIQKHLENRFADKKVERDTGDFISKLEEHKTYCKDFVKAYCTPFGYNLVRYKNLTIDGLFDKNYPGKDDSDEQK
The data set can be described thus: crRNA (strand 1, pre-loaded); Mg2+; 40 mM Tris-HCl pH 7.5, 150 mM NaCl, 6 mM MgCl2, 1 mM DTT, 0.1% Tween-20, 0.2 mg/ml BSA; 25 C; 10 min per concentration, then washed. As to conditions: tags: His6-TwinStrep-SUMO cleaved; N-terminal SNAP kept (SNAP-Surface 488); label: 3' end held by stalled T7 RNA polymerase.
As usually defined, the Kd is the equilibrium constant for the complex coming apart. The low end stands for a tighter complex, the high end for a looser complex. With B1, the Kd was 14.4 ± 0.8 nM.

Take B2: the affinity, expressed as Kd, was 40 ± 7 nM.

In the case of B3, binding was characterised by a dissociation constant (Kd) of 20.5 ± 1.2 nM.

As for B4, the Kd turned out to be 60 ± 10 nM. This Kd lies about 2.9-fold higher than the previous one.

Molecule B5 displayed a Kd of 69 ± 9 nM.

In the case of B6, binding was characterised by a dissociation constant (Kd) of 11.7 ± 0.7 nM.

Consider B7, for which the Kd worked out at 48 ± 4 nM. Against the preceding molecule, the Kd is about 4.1-fold higher.

B8 returned a Kd of 6.8 ± 0.4 nM.

The molecule B9 displayed an equilibrium dissociation constant (Kd) of 25.7 ± 2 nM. Compared with the last molecule, the Kd is about 3.8-fold higher.

Molecule B10 gave a Kd of 45 ± 6 nM.

Molecule B11 returned a Kd of approximately 38 nM.

Regarding B12, the Kd is 8.2 ± 0.35 nM.

As to B13, the Kd came to 24.4 ± 2.1 nM.

B14: binding was put at a Kd of 10.1 ± 0.5 nM.

B15 yielded a Kd of 86 ± 30 nM.

Turning to B16, the Kd worked out at 25.2 ± 3.4 nM. This Kd lies about 3.4-fold lower than the previous one.

In the case of B17, the Kd stood at 29.8 ± 3.1 nM.

As for B18, the Kd turned out to be 3.39 ± 0.26 nM.

Molecule B19 had a Kd of 61 ± 20 nM.

B20: the Kd was 61 ± 8 nM.

B21 returned a Kd of 12.3 ± 0.5 nM.

B22 came in with a Kd of 24.5 ± 1.7 nM. Compared with the last molecule, the Kd is about 2-fold higher.

Molecule B23 showed a Kd of 55 ± 9 nM.

For B24, binding was put at a Kd of 5.2 ± 0.6 nM.

As to B25, binding was put at a Kd of 36 ± 4 nM.

B26 displayed a Kd of 63 ± 27 nM.

As for B27, the Kd is 29.7 ± 2.6 nM.
